Measured values: CN116023497A (WEST CHINA HOSPITAL SICHUAN UNIV, dated 2023)

Tests used:
DDR2胞外段 = target: T1, DDR2胞外段 (UniProt Q16832 22-399); test: ELISA, coated DDR2 ECD, dilution series of Tytug
T1 construct: range 22-399; also called DDR2 ECD
T1 sequence (looked up): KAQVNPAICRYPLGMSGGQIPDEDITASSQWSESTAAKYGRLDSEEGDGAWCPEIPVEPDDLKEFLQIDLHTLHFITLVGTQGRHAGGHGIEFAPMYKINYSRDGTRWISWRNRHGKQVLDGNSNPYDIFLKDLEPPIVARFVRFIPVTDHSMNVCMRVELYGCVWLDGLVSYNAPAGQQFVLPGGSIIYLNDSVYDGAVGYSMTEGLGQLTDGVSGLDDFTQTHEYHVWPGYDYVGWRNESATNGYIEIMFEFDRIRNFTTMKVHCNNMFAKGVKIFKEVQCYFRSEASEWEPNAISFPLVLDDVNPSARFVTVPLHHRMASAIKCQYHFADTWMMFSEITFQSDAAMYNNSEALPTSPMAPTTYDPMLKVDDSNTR

DDR1胞外段(DDR1 ECD), His标签 [1] = target: T2, DDR1胞外段(DDR1 ECD), His标签 (human); test: SPR (Biacore), 1:1 model; His-tagged DDR1 ECD on NTA chip, Tytug as analyte
T2 chain: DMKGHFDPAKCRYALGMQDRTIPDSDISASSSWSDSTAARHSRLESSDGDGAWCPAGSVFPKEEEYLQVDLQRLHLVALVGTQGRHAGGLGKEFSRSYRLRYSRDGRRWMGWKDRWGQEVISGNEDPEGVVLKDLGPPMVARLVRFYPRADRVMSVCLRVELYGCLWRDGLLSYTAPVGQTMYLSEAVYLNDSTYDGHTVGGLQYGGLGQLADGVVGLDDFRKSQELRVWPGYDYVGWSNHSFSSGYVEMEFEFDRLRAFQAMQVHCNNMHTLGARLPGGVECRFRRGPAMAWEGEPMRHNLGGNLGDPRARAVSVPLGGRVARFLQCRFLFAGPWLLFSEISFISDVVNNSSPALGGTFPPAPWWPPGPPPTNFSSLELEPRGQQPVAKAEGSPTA

DDR1胞外段(DDR1 ECD), His标签 [2] = target: T2, DDR1胞外段(DDR1 ECD), His标签; test: SPR (Biacore), 1:1 model; His-tagged DDR1 ECD on NTA chip, Tytug as analyte; exponent printed without minus sign, kd/ka gives 2.26e-10

binding result (DDR2胞外段): no binding
koff (DDR1胞外段(DDR1 ECD), His标签 [1]): 4.66e-05 s⁻¹
kon (DDR1胞外段(DDR1 ECD), His标签 [1]): 207000 M⁻¹ s⁻¹
Kd (DDR1胞外段(DDR1 ECD), His标签 [2]): 0.226 nM
B1: Tytug抗体 (antibody, IgG1, V domains shown)
VH: QVQLQQPGAELVRPGSSVRLSCKASGYSFTSYWMNWVKQRPGQGLEWIGMIHPSDSKTRLDQKFKDKATLTVDKSSSTAYMQLSSPTSEDSAVYYCAREGTYYYAMDFWGQGTSVTVSS
VL: DVLMTQTPLSLPVSLGDQASISCRSSQTIVHSNGNTYLEWYLQKPGQSPKLLIYKVSNRFSGVPDRFSGSGSGTDFTLKISRVEAEDLGVYYCFQGSHDPYTFGGGTKLEIK
notes: Mouse hybridoma monoclonal antibody; also called T4-E11-F10; T4-E11-F10(Tytug)
